These results are taken from patent publication US10660969B2, “Eight-arm polyethylene glycol derivative, production method therefor, and modified bio-related substance thereof” (priority 2015, dated 2020).

For data set [1] the following is noted: nude mouse.
Source text: The nude mouse model was used to evaluate the maximum tolerated dose of each group. When the body weight of a nude mouse decreased by 20%, the death/survival was monitored and counted.
Data set [2] can be described thus: Pharmacokinetics in tumor-free SD rats (HPLC, non-compartmental model). Type of data set: in vivo, Adult SD rats. Conditions: single dose of 25 mg/kg, within 7 days. How it is done: Tumor-free Adult SD rats were administrated a single dose of 25 mg/kg, and four rats were used for each experimental point. The rats were sacrificed at different time points within 7 days, and the concentrations of pegylated irinotecan and its metabolite SN38 were measured and analyzed by HPLC. The analysis of pharmacokinetics was carried out by using a non-compartmental model.

Data set [3] relates to Mouse hepatoma H22 cells. Description: Anti-tumor effect in transplanted tumor model. Conditions: H22 subcutaneous tumor; tumors weighed two weeks after transplantation. Format: in vivo, mice. The protocol:
An animal model of transplanted tumor was used. Mouse hepatoma H22 cells were transplanted subcutaneously into the right axillary region of mice to form solid tumors. After transplantation for 2 days and 7 days, drugs were administered intravenously via the tail vein as a single dose. Two weeks after transplantation, the mice were sacrificed by cervical dislocation, and the tumors were isolated and weighed.

Regarding `CCOC(=O)CC(CN)(CC(=O)OCC)CC(=O)OCC` [Example T8, 8arm-PEG-Gly-IRES], the “maximum tolerated dose, ranking between groups” value in data set [1] is reported as “the lowest”. The “apparent elimination half-life of the metabolite SN38, ranking between groups” value in data set [2] is on record as “the longest apparent elimination half-life”. In addition, the “tumor-inhibition ratio, ranking between groups” value in data set [3] is reported as “the highest tumor-inhibition ratio”.
